Measurements reported in patent US6274553A, “Method for stabilizing peptides and freeze-dried medicinal compositions containing peptides obtained by using the method” (Japan Energy Corporation, priority 1997, dated 2001).

What was measured:
Format in all cases: physicochemical
[1] = Storage stability of lyophilized HV1C3 at 50° C., liquid chromatography peak area (Experiment Example 1); conditions: glycine, mannitol
Description: Hirudin variant HV1C3 having the amino acid sequence shown by Sequence NO. 1 in the Sequence Table, glycine, and mannitol were dissolved in purified water to a final concentration of 6 mg/ml (0.86 mM), 6.7 mg/ml (89 mM), and 33.5 mg/ml (184 mM), respectively. The resulting solution was divided into six equal portions. These portions were adjusted to the pH shown in Table 1 with the addition of 30 mM of tartaric acid, phosphoric acid, or Tris buffer solution. The peptide solutions for which the pH was thus adjusted filtered through a 0.22 μm membrane filter. The filtrates were charged into 6 ml vials in the amount of 1 ml for each vial. 50 such vials were prepared for each pH of the solution, totaling 300 vials. All these 300 vials were lyophilized.
The lyophilized samples were stored in an incubator at 50° C. and removed from the incubator after 1, 2, 4, 6, 8 weeks, respectively. 1 ml of purified water was added to each vial removed. Solutions further diluted 50-fold were subjected to liquid chromatography to measure a peak area percentage of hirudin variant HV1C3 under the conditions shown in Table 2. The amount (percentage) of the hirudin variant HV1C3 remaining in the lyophilized sample, after having been stored in the incubator, compound with the amount of the hirudin variant HV1C3 contained at the beginning of the storage was determined.

[2] = Storage stability of lyophilized HV1C3 at 60° C., pH with tartaric acid (Experiment Example 3); conditions: saccharose, mannitol
Description: Hirudin variant HV1C3, purified saccharose, and mannitol were dissolved in purified water to a final concentration of 6 mg/ml (0.86 mM), 1.6 mg/ml (4.7 mM), and 10 mg/ml (55 mM), respectively. The resulting solution was divided into four equal portions. Three of these portions were adjusted to pHs 5.0, 5.5, and 6.0 using 30 mM tartaric acid. The peptide solutions for which the pH was thus adjusted and the peptide solution without pH adjustment were filtered through a 0.22 μm membrane filter. The filtrates were filled into 6 ml vials in the amount of 1 ml for each vial. 50 such vials were prepared for each pH of the solution, 200 vials in total. All these 200 vials were lyophilized.
The lyophilized samples were stored in an incubator at 60° C. and removed from the incubator after 1, 2, 3, 4, 5, 6, 7, and 8 weeks, respectively. 1 ml of purified water was added to each vial removed. Solutions further diluted 50-fold were used to measure the amount (percentage) of the hirudin variant HV1C3 remaining in the lyophilized sample in the same manner as in Experiment Example 1.

[3] = Storage stability of lyophilized HV1C3 at 60° C., tartaric acid concentration (Experiment Example 4)
Description: Hirudin variant HV1C3 and purified saccharose were dissolved in purified water to a final concentration of 6 mg/ml (0.866 mM) and 1.6 mg/ml (4.7 mM), respectively. The resulting solution was divided into four equal portions. Three of these portions were adjusted to pH 5.5 using 5 mM of tartaric acid, 10 mM of tartaric acid, and 30 mM of tartaric acid, respectively. Mannitol was added to a solution without pH adjustment to a concentration of 10 mg/ml (55 mM). These solutions were filtered through a 0.22 μm membrane filter. The filtrates were filled into 6 ml vials in the amount of 1 ml for each vial. 50 such vials were prepared for each pH of the solution, 200 vials in total. All these 200 vials were lyophilized.
The lyophilized samples were stored in an incubator at 60° C. and removed from the incubator after 1, 2, 3, 4, 5, and 6 weeks, respectively. 1 ml of purified water was added to each vial removed. The amount (percentage) of the hirudin variant HV1C3 remaining in the lyophilized sample was determined in the same manner as in Experiment Example 1.

[4] = tartaric acid 0 mM, without pH adjustment, mannitol 10 mg/ml, saccharose
[5] = tartaric acid 5 mM, pH 5.5, saccharose
[6] = tartaric acid 10 mM, pH 5.5, saccharose
[7] = tartaric acid 30 mM, pH 5.5, saccharose

B1: hirudin variant HV1C3: Hirudin variant having the amino acid sequence shown by Sequence No. 1 (JP Laid-open No. 173798/1992) (protein)
chain: VVYTDCTESGQNLCLCEGSNVCGQGNKCILGSDGEKNQCVTGEGTPKPQSHNQGDFEPIPEDAYDE
Remaining peptide (%) 1 wk ([1]; pH 4.5, tartaric acid 30 mM): 98.0% | Remaining peptide (%) 2 wks ([1]; pH 4.5, tartaric acid 30 mM): 97.7% | Remaining peptide (%) 4 wks ([1]; pH 4.5, tartaric acid 30 mM): 95.4% | Remaining peptide (%) 6 wks ([1]; pH 4.5, tartaric acid 30 mM): 94.7% | Remaining peptide (%) 8 wks ([1]; pH 4.5, tartaric acid 30 mM): 93.4% | Remaining peptide (%) 1 wk ([1]; pH 5.5, tartaric acid 30 mM): 98.6% | Remaining peptide (%) 2 wks ([1]; pH 5.5, tartaric acid 30 mM): 98.7% | Remaining peptide (%) 4 wks ([1]; pH 5.5, tartaric acid 30 mM): 97.5% | Remaining peptide (%) 6 wks ([1]; pH 5.5, tartaric acid 30 mM): 96.5% | Remaining peptide (%) 8 wks ([1]; pH 5.5, tartaric acid 30 mM): 97.0% | Remaining peptide (%) 1 wk ([1]; pH 6.0, phosphoric acid 30 mM): 98.4% | Remaining peptide (%) 2 wks ([1]; pH 6.0, phosphoric acid 30 mM): 96.4% | Remaining peptide (%) 4 wks ([1]; pH 6.0, phosphoric acid 30 mM): 95.1% | Remaining peptide (%) 6 wks ([1]; pH 6.0, phosphoric acid 30 mM): 94.5% | Remaining peptide (%) 8 wks ([1]; pH 6.0, phosphoric acid 30 mM): 93.6% | Remaining peptide (%) 1 wk ([1]; pH 7.0, Tris buffer 30 mM): 95.7% | Remaining peptide (%) 2 wks ([1]; pH 7.0, Tris buffer 30 mM): 92.0% | Remaining peptide (%) 4 wks ([1]; pH 7.0, Tris buffer 30 mM): 86.8% | Remaining peptide (%) 6 wks ([1]; pH 7.0, Tris buffer 30 mM): 72.0% | Remaining peptide (%) 8 wks ([1]; pH 7.0, Tris buffer 30 mM): 70.3% | Remaining peptide (%) 1 wk ([1]; pH 7.0, phosphoric acid 30 mM): 99.0% | Remaining peptide (%) 2 wks ([1]; pH 7.0, phosphoric acid 30 mM): 97.3% | Remaining peptide (%) 4 wks ([1]; pH 7.0, phosphoric acid 30 mM): 93.3% | Remaining peptide (%) 6 wks ([1]; pH 7.0, phosphoric acid 30 mM): 92.7% | Remaining peptide (%) 8 wks ([1]; pH 7.0, phosphoric acid 30 mM): 90.0% | Remaining peptide (%) 1 wk ([1]; pH 8.0, Tris buffer 30 mM): 81.9% | Remaining peptide (%) 2 wks ([1]; pH 8.0, Tris buffer 30 mM): 58.0% | Remaining peptide (%) 1 wk ([2]; pH 5.0, 30 mM tartaric acid): 97.6% | Remaining peptide (%) 2 wks ([2]; pH 5.0, 30 mM tartaric acid): 96.1% | Remaining peptide (%) 3 wks ([2]; pH 5.0, 30 mM tartaric acid): 93.2% | Remaining peptide (%) 4 wks ([2]; pH 5.0, 30 mM tartaric acid): 91.8% | Remaining peptide (%) 5 wks ([2]; pH 5.0, 30 mM tartaric acid): 91.7% | Remaining peptide (%) 6 wks ([2]; pH 5.0, 30 mM tartaric acid): 89.9% | Remaining peptide (%) 7 wks ([2]; pH 5.0, 30 mM tartaric acid): 69.1% | Remaining peptide (%) 8 wks ([2]; pH 5.0, 30 mM tartaric acid): 86.6% | Remaining peptide (%) 1 wk ([2]; pH 5.5, 30 mM tartaric acid): 98.4% | Remaining peptide (%) 2 wks ([2]; pH 5.5, 30 mM tartaric acid): 97.6% | Remaining peptide (%) 3 wks ([2]; pH 5.5, 30 mM tartaric acid): 95.9% | Remaining peptide (%) 4 wks ([2]; pH 5.5, 30 mM tartaric acid): 95.2% | Remaining peptide (%) 5 wks ([2]; pH 5.5, 30 mM tartaric acid): 92.4% | Remaining peptide (%) 6 wks ([2]; pH 5.5, 30 mM tartaric acid): 92.2% | Remaining peptide (%) 7 wks ([2]; pH 5.5, 30 mM tartaric acid): 91.9% | Remaining peptide (%) 8 wks ([2]; pH 5.5, 30 mM tartaric acid): 90.6% | Remaining peptide (%) 1 wk ([2]; pH 6.0, 30 mM tartaric acid): 98.4% | Remaining peptide (%) 2 wks ([2]; pH 6.0, 30 mM tartaric acid): 97.6% | Remaining peptide (%) 3 wks ([2]; pH 6.0, 30 mM tartaric acid): 96.6% | Remaining peptide (%) 4 wks ([2]; pH 6.0, 30 mM tartaric acid): 96.1% | Remaining peptide (%) 5 wks ([2]; pH 6.0, 30 mM tartaric acid): 94.6% | Remaining peptide (%) 6 wks ([2]; pH 6.0, 30 mM tartaric acid): 93.6% | Remaining peptide (%) 7 wks ([2]; pH 6.0, 30 mM tartaric acid): 91.8% | Remaining peptide (%) 8 wks ([2]; pH 6.0, 30 mM tartaric acid): 92.2% | Remaining peptide (%) 1 wk ([2]; without pH adjustment): 96.9% | Remaining peptide (%) 2 wks ([2]; without pH adjustment): 94.2% | Remaining peptide (%) 3 wks ([2]; without pH adjustment): 92.3% | Remaining peptide (%) 4 wks ([2]; without pH adjustment): 90.9% | Remaining peptide (%) 5 wks ([2]; without pH adjustment): 89.9% | Remaining peptide (%) 6 wks ([2]; without pH adjustment): 88.2% | Remaining peptide (%) 7 wks ([2]; without pH adjustment): 87.2% | Remaining peptide (%) 8 wks ([2]; without pH adjustment): 86.1% | Remaining peptide (%) 1 wk [3, 4]: 97.0% | Remaining peptide (%) 2 wks [3, 4]: 94.0% | Remaining peptide (%) 3 wks [3, 4]: 92.0% | Remaining peptide (%) 4 wks [3, 4]: 91.0% | Remaining peptide (%) 5 wks [3, 4]: 87.8% | Remaining peptide (%) 6 wks [3, 4]: 86.5% | Remaining peptide (%) 1 wk [3, 5]: 98.8% | Remaining peptide (%) 2 wks [3, 5]: 98.6% | Remaining peptide (%) 3 wks [3, 5]: 97.6% | Remaining peptide (%) 4 wks [3, 5]: 97.5% | Remaining peptide (%) 5 wks [3, 5]: 97.0% | Remaining peptide (%) 6 wks [3, 5]: 96.9% | Remaining peptide (%) 1 wk [3, 6]: 98.5% | Remaining peptide (%) 2 wks [3, 6]: 98.1% | Remaining peptide (%) 3 wks [3, 6]: 97.2% | Remaining peptide (%) 4 wks [3, 6]: 96.9% | Remaining peptide (%) 5 wks [3, 6]: 96.4% | Remaining peptide (%) 6 wks [3, 6]: 96.1% | Remaining peptide (%) 1 wk [3, 7]: 97.9% | Remaining peptide (%) 2 wks [3, 7]: 96.8% | Remaining peptide (%) 3 wks [3, 7]: 96.1% | Remaining peptide (%) 4 wks [3, 7]: 94.7% | Remaining peptide (%) 5 wks [3, 7]: 94.1% | Remaining peptide (%) 6 wks [3, 7]: 93.5%
